Data as given in patent US20230295310A1 (ABCELLERA BIOLOGICS, published 2023).

Legend:
[1] = biological target: T1, human CD3 expressed on cells (Jurkat cells; human primary T cells) (human, UniProt P07766 23-207; P04234 22-171; P09693 23-182); assay: flow cytometry, 25 nM, Jurkat cells
T1 construct: whole, on cells
Outline: (§1)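 Cells expressing CD3 were exposed to each antibody diluted to 25 nM for 30 minutes at 4° C, then analysed by flow cytometry. The median fluorescence signal was expressed relative to an isotype control, and a value of at least 10 indicated binding.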

[2] = biological target: T2, cynomolgus monkey CD3 expressed on cyno primary T cells (cynomolgus monkey, UniProt Q95LI5 22-198; Q95LI8 22-171; Q95LI7 23-181); assay: flow cytometry, cyno primary T cells
T2 construct: whole, on cells; CD3 complex on purified cynomolgus monkey CD3 pan T cells; also called cyno CD3
Outline: as §1

[3] = biological target: T1, human CD3 expressed on cells (Jurkat …); assay: flow cytometry, 25 nM, human primary T cells
Outline: as §1

T2 sequence (Q95LI5 22-198, chain 1 of 3): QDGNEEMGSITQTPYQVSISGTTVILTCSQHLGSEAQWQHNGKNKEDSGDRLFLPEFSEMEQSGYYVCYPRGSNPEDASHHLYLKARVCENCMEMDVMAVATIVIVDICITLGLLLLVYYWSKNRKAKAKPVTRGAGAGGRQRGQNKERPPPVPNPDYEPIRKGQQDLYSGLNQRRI
T2 sequence (Q95LI8 22-171, chain 2 of 3): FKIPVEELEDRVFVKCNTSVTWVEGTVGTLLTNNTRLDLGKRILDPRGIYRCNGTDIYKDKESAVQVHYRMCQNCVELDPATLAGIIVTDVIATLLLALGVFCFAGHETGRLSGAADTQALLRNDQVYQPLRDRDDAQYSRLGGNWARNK
T2 sequence (Q95LI7 23-181, chain 3 of 3): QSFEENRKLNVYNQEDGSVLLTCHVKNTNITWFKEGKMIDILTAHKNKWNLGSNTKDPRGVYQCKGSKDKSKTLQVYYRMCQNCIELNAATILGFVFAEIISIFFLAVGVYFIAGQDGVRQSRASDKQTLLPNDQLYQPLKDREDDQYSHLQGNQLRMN
T1 sequence (P07766 23-207, chain 1 of 3): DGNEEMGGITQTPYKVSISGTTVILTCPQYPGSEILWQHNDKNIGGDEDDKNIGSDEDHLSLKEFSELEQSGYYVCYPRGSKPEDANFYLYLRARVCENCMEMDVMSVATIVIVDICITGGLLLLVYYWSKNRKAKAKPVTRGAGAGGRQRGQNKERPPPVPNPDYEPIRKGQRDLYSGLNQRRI
T1 sequence (P04234 22-171, chain 2 of 3): as the sequence (Q95LI8 22-171, chain 2 of 3) above, with V5I, K15N, V20I, T32S, N33D, N34I, A64T, N74S, L83V, R141H counted along it
T1 sequence (P09693 23-182, chain 3 of 3): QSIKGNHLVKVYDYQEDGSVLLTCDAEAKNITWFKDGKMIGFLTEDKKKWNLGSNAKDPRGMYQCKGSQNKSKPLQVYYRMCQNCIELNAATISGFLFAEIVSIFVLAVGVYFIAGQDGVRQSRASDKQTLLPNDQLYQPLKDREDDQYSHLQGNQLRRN

Binding (FOI) [1] [FOI]	Binding (FOI) [3] [FOI]	Binder	binding result [2]
156	149	mAb 276 (antibody, V domains shown, VH/VL only) VH: EVQLVESGGGLVQPGGSLRLSCAASGIPFSTYSMNWVRQAPGKGLEWVSYISGSSRTIYYADSVKGRFTISRDNAKKLLFLQMNSLRDEDTAVYYCAREGDYYDSSGWAYWGQGTLVTVSS VL: DIQMTQSPSSLSASVGDRVTITCRASQNIYKYLNWYEQKPGRAPKLLIYTTSNLQSGVPSRFSGSGSGTAFTLIISSLQPEDFATYYCQQSYGSPYTFGQGTKLEIK	no binding (tested: FOI <10 (FOI >=10 = positive); 25 nM)
147	113	mAb 258 (antibody, V domains shown, VH/VL only) VH: EVQLLESGGGLVQPGGSLRLSCAASGFTFSNYAMNWVRQAPGKGLEWVSVISNSGGTRLYVDSVKGRFTISRDNSKNTLYLQMSSLRAADTAVYYCAKDAAAALYYYYFYYMDVWGKGTTVTVSS VL: EIVLTQSPDFQSVTPKEKVTITCRASQSIGSSLHWYQQKPDQSPKLLIKYASQSFSGVPSRFSGSGSGTDFTLTINSLEAEDAATYYCHQSSSLPYTFGQGTKLEIK	no binding (tested: FOI <10 (FOI >=10 = positive); 25 nM)
216	128	mAb 283 (antibody, V domains shown, VH/VL only) VH: QVHLVQSGAEVKKPGASVRVSCKASGYTFTGYYIHWLRQAPGQGLEWLGWINPNSGGTNYSQKFRGRVTMTRDTSISTAYMELSRLRSDDTAVYYCARDKVWEQQLVGGFDYWGQGTLVTVSS VL: not shown	no binding (tested: FOI <10 (FOI >=10 = positive); 25 nM)
174	220	mAb 264 (antibody, V domains shown, VH/VL only) VH: EVQLLESGGGLVQPGGSLRLSCVASGFTFRSSSMTWVRQAPGKGLEWVSGIRGSGGRTYDAESVKGRFTISRDNSKNTLYLQMNSLRAEDTAEYYCAKLYDYYNDYMDVWGKGTTVTVSS VL: SYELTQPLSVSVALGQTARITCGGNNIGSKNVHWYQQKPGQAPVLVIYRDSNRPSGIPERFSGSNSGNTATLTISRAQAGDEADYYCQVWDSSTAVFGGGTQLTAL	no binding (tested: FOI <10 (FOI >=10 = positive); 25 nM)
226	209	mAb 284 (antibody, V domains shown, VH/VL only) VH: EVQLLESGGGLVQPGGSLRLSCAASGFTFSSYAMSWVRQAPGKGLEWVSAISGSSGRTYYTDSVKGRFTISRDNSKNTLSLQMNSLRAEDTAVYYCAKKYSYYYYYMDVWGKGTTVTVSS VL: SYELTQPLSVSVALGQTAKITCGGNNIGSKNVHWYQQKPGQAPVLVIYRDSNRPSGIPERFSGSNSGNTATLTISRAQAGDEADYYCQVWDSSTAVFGGGTQLTAL	no binding (tested: FOI <10 (FOI >=10 = positive); 25 nM)
188	248	mAb 263 (antibody, V domains shown, VH/VL only) VH: EVQLLESGGGLVQPGGSLRLSCTPSGITFNNYAMTWVRQAPGKGLEWVSGISVSGGSTYYADSVMGRFTISRDSSKTLYLQMNSLRAEDTAVYYCAKFHSHYYYYMDVWGKGTTVTVSS VL: SYELTQPLSVSVALGQTARITCGGNNIGSKDVHWYQQKPGQAPVLVIYRDSNRPSGIPERFSGSNSGNTATLTISRAQAGDEADYYCQVWDRRTAVFGGGTQLTAL	no binding (tested: FOI <10 (FOI >=10 = positive); 25 nM)
178	219	mAb 260 (antibody, V domains shown, VH/VL only) VH: EVQLLESGGGLVQPGGSLRLSCVASGFTFRSSSMAWVRQAPGKGLEWVSGIRGSGGRTYDAESVKGRFIISRDTSKNTLYLQMNSLRGEDTAEYFCAKLYDYYNDYMDVWGKGTTVTVSS VL: SYELTQPLSVSVALGQTARITCGGNNIGSKNVHWYQQKPGQAPVLVIYRDSNRPSGIPERFSGSNSGNTATLTISRAQAGDEADYYCQVWDSSTAVFGGGTQLTAL	no binding (tested: FOI <10 (FOI >=10 = positive); 25 nM)
169	214	mAb 259 (antibody, V domains shown, VH/VL only) VH: EVLLLESGGGLVQPGGSLRLSCAASGFTFRSSSMTWVRQAPGKGLEWVSGIRGSGGRTYDAESVKGRFTISRDISKNTLYLQMNSVRAEDTAEYYCAKLYDYYNDYMDVWGKGTTVTVSS VL: SYELTQPLSVSVALGQTARITCGGNNIGSKNVHWYQQKPGQAPVLVIYRDSNRPSGIPERFSGSNSGNTATLTISRAQAGDEADYYCQVWDSSTAVFGGGTQLTAL	no binding (tested: FOI <10 (FOI >=10 = positive); 25 nM)
188	229	mAb 261 (antibody, V domains shown, VH/VL only) VH: EVQLLESGGGFMQPGGSLRLSCAVSGFTFRTSSMAWVRQAPGKGLEWVSGIRGSGGRTYDAESVKGRFTISRDISKNTLYLQMNNLRAEDTAEYYCAKLYDYYNDFMDVWGKGTTVIVSA VL: SYELTQPLSVSVALGQTARITCGGNNIGSKNVHWYQQKPGQAPVLVIYRDSNRPSGIPERFSGSNSGNTATLTISRAQAGDEADYYCQVWDSSTAVFGGGTQLTAL	no binding (tested: FOI <10 (FOI >=10 = positive); 25 nM)
165	219	mAb 262 (antibody, V domains shown, VH/VL only) VH: EVRLLESGGGLVQPGGSLRLSCAASGFTFRSSSMAWVRQDPGKGLEWVTGIRGSGGRTYDADSVKGRFTISRDNSKNTLYLQMNSLRAEDTAEYYCAKLYDYYNDYMDVWGKGTTVTVSS VL: SYELTQPLSVSVALGQTARITCGGNNIGSKNVHWYQQKPGQAPVLVIYRDSNRPSGIPERFSGSNSGNTATLTISRAQAGDEADYYCQVWDSSTAVFGGGTQLTAL	no binding (tested: FOI <10 (FOI >=10 = positive); 25 nM)
